Reference: the DeepSol protein solubility set

Assay: soluble on expression in E. coli; label from the status in PepcDB or PDB records
With “MADPLSKEEDIQHRPDSPPLGLLDPSRIQNPLANDQLHQVPQQQNPSGFVMPEQPRQQPPPQTWQRTPTMSPANIFQGGSGTPGSQRSSTGTPNHQMGNPPQHQQQQFFHGESPAHSQGTPMTPQSAGMPGSNCGTPQSAGGPPTSVPYDYQQAQMQQQQHAQAMAAAAAAQQQQQQHLQQQQYAQNPQQMHDSPYRQHQMMQMHQHPGHPSQYPPGYPQQQAAQWQQQMYARQAAAQAQAQAQAQAQAQAQQRAAAQRVPVPYPPGAYPPGMPGPMTPGYPAQAPAAPRTTPGSAGPGTGPPGTPQRPQYPQGTNPQPQQAQFTYPPTQQMTPTGQPPGYPGMPGTPTFSSPAHQMFRQGQPTAPPGMRQYISPQAGQQQPTPGTPHRFAPPGPSGTTSSPHFAPGAPGADLRSPSLMSPNQQSQQHTPVLPRSLHNEMTSHGMRPIALPSQPLPQTQGTPQPILSASSLPPQSAGATQFVYRPQQPNQMNTMNQMNQMHHDVNPFPIQMNVDPELYLTGIHFHCFDSEKLFEDKLDRKNLEFMIKYHGGDIEFEASKFHERIHQITHVLVDSCRNTNVMTSLEHRKRIVSIQWIIDVMERERVELPWRIAHLPPPFNENFRPYLGKLFSLSGFDSSERAAISFMAEMMGAKITPFLARQNDLLIAKQPADKVTRAQEWKVPVVNFQWIADAYVCDEASPQKRPNVENPRYQLENPVMTNVNTSPNHIEGASQEFGAMMSCWKSQTIIADQAYEKARQNRKTLQNNTFFFPSKRLSDQAVAPTEDEIKSSRARLDEIKTHWEEHQEKMKDTPLSKEFYRVREPQARVSAWFGEGIDDEALTILKKKLEFLGGECVEKIRDATHVILISGRRSLVLLESIIRGKNIMDPEWIVDSYKQKMWLDTLDYFLHDKELEKEFAYNCKRSVLRARNKPVFEDIEFHVTRFVEPNQNDLVRLIELGGGNVHSEKPDPKYLAKCVETEQPFIIISCENDARFLSYLAGSKLPIYNVDLVLFAMLRQQIEPLPQYRIPIPIVVKTPVFRQPPPYTAPPKDQEPAASLASEPTRAADVLSENS” the “soluble on expression in E. coli” value was “not soluble”.
In the case of “ATCDDGRTTANAACCILFPILDDIQENLFDGAQCGEEVHESLRLTFHDAIGFSPTLGGGGADGSIIAFDTIETNFPANAGIDEIVSAQKPFVAKHNISAGDFIQFAGAVGVSNCPGGVRIPFFLGRPDAVAASPDHLVPEPQDSVDSILARMGDAGFSPVEVVWLLASHSIAAADKVDPSIPGTPFDSTPGVFDSQFFIETQLKGRLFPGTADNKGEAQSPLQGEIRLQSDHLLARDPQTACEWQSMVNNQPKIQNRFAATMSKMALLGQDKTKLIDCSDVIPTPPALVGAAHLPAGFSLSDVEQACAATPFPALTADPGPVTSVPPVPGS”, the “soluble on expression in E. coli” value is reported as “soluble”.
In the case of “MGSDKIHHHHHHMDEKGLADCHTPTNGGNQKIKFVNEPNLYRIIFRSNKPEAKQFQDWVFNEVLPTIRKTGKYEAPKPVEKRNYLNNSDMNNIKRLIWTCADHFGHKGSFNQAIWACLRDVTGVPSPAKFEVEHLPVLAEEFKRILNIVQPFLDMQYECQTLLIKRVIRGRADHTVLQALLDNMRNAANQSDNQFKEALQKQLPAMFNQECLNLINRRPNHYDHYEYNERLI”, the “soluble on expression in E. coli” value is reported as “not soluble”.
With “MANVYTAEATATGGRAGTTRSSDDRLNLDLSVPAEMGGDGGPGTNPEQLFAAGYAACFQGALGVVSRRNKIDVPADSTITARVGLQKAGLAFALDVELEGHFPGLSREQAEGLMHAAHEVCPYSAATRNNVDVRLKVRE” the “soluble on expression in E. coli” value was “soluble”.
In the case of “MASVPTHQSEKEKKNDELSTAILKDKVKPNRLIVDQSEQDDNSVIAVSQAKMDELGLFRGDAVILKGKKRKESVAIIVSDESCPNEKVRMNRVVRNNLRIRLGDVVSITPAPNLSYGTRIHVLPIDDTIEGLTGNLFDVFLKPYFLEAYRPLHKGDIFTVQAAMRTVEFKVVETEPAPACIVSPDTMIHYEGDPIKREEEEESMNDIGYDDLGGVRKQLAQIKEMVELPLRHPQLFKAIGIKPPRGILLFGPPGTGKTLIARAVANETGSFFFLINGPEVMSKMSGESESNLRKAFEECEKNQPAILFIDEIDAIAPKREKTNGEVERRIVSQLLTLMDGVKGRSNLVVIAATNRPNSIDGALRRFGRFDREIDIGIPDAVGRLEILRIHTKNMKLADDVDLEQIANECHGFVGADLASLCSEAALQQIREKMELIDLEDDQIDAEVLNSLAVTMENFRFAQGKSSPSALREAVVETPNTTWSDIGGLQNVKRELQELVQYPVEHPEKYLKFGMQPSRGVLFYGPPGCGKTLLAKAIANECQANFISIKGPELLTMWFGESEANVRDVFDKARAAAPCVLFFDELDSIAKARGGGAGGDGGGASDRVINQVLTEMDGMNAKKNVFIIGATNRPDIIDPAVLRPGRLDQLIYIPLPDEASRHQILKASLRKTPLSKDLDLTFLAKNTVGFSGADLTEICQRACKLAIRESIEKEIRIEKERQDRQARGEELMEDDAVDPVPEITRAHFEEAMKFARRSVTDNDIRKYEMFAQTLQQSRGFGNNFKFPGEQRGSDAPSAPVPAQDDDDLYN”, the “soluble on expression in E. coli” value is reported as “soluble”.
In the case of “MGLIPPKWLERMVEAYRDPSLERAVYGEVLTRSDIERLLSETPLHPMAAAADYYARVIKKGVGSYIVNIYLAYTNVCVTRCTFCDFYVPPERRSSGYTHPPEHLGRVAGLARKRLGVREVHMVGGNDPELPLEYYEEAIREIKRVAPGVVLKAFTAEEIGFIAKATGNTPKEVLARFREAGLDALPGGGAEVLSEEVRKRIAPLKISSDEYLEIHRLAHSMGIRSNITLLYAHIEEPRHVAEHLYRIRRLQEETGGFISFIPIRFNPGKTPLSRHPEYVKKGDRGGLYDLRIVAASRLALLGAIDNIMAYWVSMGEKLAQAALSHGANDIGGTFYNESVISAASSLRKRKGMSPARLVFNIATAGWTPMERDTFYNYYPPRAEPPRLPWMQG”, the “soluble on expression in E. coli” value is reported as “not soluble”.
For “MGSDKIHHHHHHMQRQTELKNWLQTVYPERDFDLSFAAADADFRRYFRAAFSDGGSVVCMDAPPDKMSVAPYLKVQKLFDMVNVPQVLHADTDLGFVVLNDLGNTTFLTAMLQEQGEAAHKALLLEAIGELVGLQKASREGVLPEYDRETMLREINLFPEWFVAKELGRELTFKQRQLWQQTADTLLPPLLAQPKVYVHRDFIVRNLMLTRGRPGVLDFQDALYGPISYDLVSLLRDAFIEWEEEFVLDLVIRYWEKARAAGLPVPAEFDEFYRRFEWMGVQRHLKVAGIFARLYYRDGKDKYRPEIPRFLNYLRRVSRRYAELAPLYALLVELVGDEELETGFTF”, the “soluble on expression in E. coli” value was “not soluble”.
With “MKFDKPAGENPIDQLKVVGRPHDRIDGPLKTTGTARYAYEWHEEAPNAAYGYIVGSAIAKGRLTALDTDAAQKAPGVLAVITASNAGALGKGDKNTARLLGGPTIEHYHQAIALVVAETFEQARAAASLVQAHYRRNKGAYSLADEKQAVNQPPEDTPDKNVGDFDGAFTSAAVKIDATYTTPDQSHMAMEPHASMAVWDGNKLTLWTSNQMIDWCRTDLAKTLKVPVENVRIISPYIGGGFGGKLFLRSDALLAALAARAVKRPVKVMLPRPSIPNNTTHRPATLQHLRIGADQSGKITAISHESWSGNLPGGTPETAVQQSELLYAGANRHTGLRLATLDLPEGNAMRAPGEAPGLMALEIAIDELAEKAGIDPVEFRILNDTQVDPADPTRCFSRRQLIECLRTGADKFGWKQRNATPGQVRDGEWLVGHGVAAGFRNNLLEKSGARVHLEQNGTVTVETDMTDIGTGSYTILAQTAAEMLGVPLEQVAVHLGDSSFPVSAGSGGQWGANTSTSGVYAACMKLREMIASAVGFDPEQSQFADGKITNGTRSATLHEATAGGRLTAEESIEFGTLSKEYQQSTFAGHFVEVGVHSATGEVRVRRMLAVCAAGRILNPKTARSQVIGAMTMGMGAALMEELAVDDRLGYFVNHDMAGYEVPVHADIPKQEVIFLDDTDPISSPMKAKGVGELGLCGVSAAIANAVYNATGIRVRDYPITLDKLLDKLPDVV” the “soluble on expression in E. coli” value was “not soluble”.
In the case of “MSEISQLTPQPLWQFFDKICSIPHPSKHEEALAQYIIEWATTEGLDVRRDPTGNVFIKKPATPGMEDRKGVVLQAHIDMVPQKNEDTEHDFTKDPIQPYIDGEWVTAKGTTLGADNGMGMASCLAVLASKELKHGPLEVLLTIDEEAGMTGAFGLEAGWLEGDILLNTDSEQEGEVYMGCAGGADGAIKLDIEREALPSGYITRQITLKGLKGGHSGCDIHTGRGNANKLLGRFLAGHAQELDLRLVEFRGGSLRNAIPREAFATIAVPAENEAKLAELFTFYTNLLKDELGKVETDIVSFNETASAEQVLTKITQSRFIATLNACPNGVIRMSDDIEGVVETSLNVGVITTDENSITILCLIRSLMDSGRSMVEGMLSSVAELAGAQVTFSGTYPGWKPDADSEIMHVFRDVYEGIYGNKPNIMVIHAGLECGLFKKPYPEMDMISFGPTIKFPHSPDEKVKIDTVALYWEQMVAILENIPKKLEHHHHHH”, the “soluble on expression in E. coli” value is reported as “soluble”.
With “SLETKVAARDLSSLLSHCEAPVAALTVTAFKCKASACSVAPAPGSNTGLGALMSMAQAAQGLQTFPNIGDGLSNALTTALKTTGCFKVMAREDFEDLRREAEAAGITLKSASADYLVTGAITSLAVGAKTQSFGGGFVPLVGAVSRSTKSANISIDVRLVDVKASEVKASQTFDVSNERSSWGAGGAGWGGSGALFGAASSTQSPELDSVANESVIQAANYIVTQVAGSAAIPPVAAITK” the “soluble on expression in E. coli” value was “soluble”.
For “MSDILLGKLATEFKTVKAMVEVYCHDHHGTKDALCSECRELLEYAEVRLDRCPYGEEKPTCNKCPIHCYKPEPKEQMRLVMRYSGPRMLLKHPILAVRHLLHEKREVPEKPAANASNRHKRINAERDT”, the “soluble on expression in E. coli” value was “not soluble”.
In the case of “MSKRCASDRDDKDSEPVKKPRFSIANILDEVEDEEDVEVDVEDVDDVDLSSIPSKSPERSRGRPKIGLKMKEGNLPIECKLEGSELWAKFFDLGTEMIITKSGRRMFPTVKVSFTNVILDALYYIFLDVVPVDSKRYRYIYNKSAWLTAGKAEPVPKNRYYLHPDSPFTGDQLLKHVISFEKTKLTNNEVDKTGHLILNSMHKYQPRIHIVQRQKANPLDPNKVVMSEEKHCTYTFPETQFMAVTAYQNQLITKLKIEKNPFAKGFRDPTGRSPDEMERSPGDMMLSNFYHSSALQQAMFQQCLSKTLQLNPSIMMLYQNVFPTGNSLPAAPTVPGNPAEISIKSE”, the “soluble on expression in E. coli” value is reported as “soluble”.
With “MSLKDEYTTSFGIRTIEVIPNKGFFLNGKRTSFKGVCNHHDLGPLGGAVNDAAIRRQIRILKDMGCNAIRTSHNMPAPELIRACDEMGMMVMAESFDEWKAMKVKNGYRHVFDEWAVKDLTNLLRHYRNNPSVVMWCIGNEVPEQWDGNKGPKMSYFLQELCHREDPTRPVTQGMDAPDAVVNNNMAAVMDIAGFNYRPHKYQENYKKLPQQIVLGSETASTVSSRGVYKFPVTRQWMKKYDDHQSSSYDVESCSWSNLPEDDFIQHEDLPYCIGEFVWTGFDYLGEPTPYYTDWPSHSSLFGIIDLAGLPKDRYYLYRSHWNKEQETLHILPHWNWEGREGEITPVFVYTNYPSAELFINGKSQGKRTKDLSVTIDNSADSVSIMNLKRQSRYRLMWMDTKYEPGTVKVVAYDADGKAVAEKELHTAGKPDHIELVADRNVIKADGKDLSFVTVRVVDRDGNLCPDASHEISFKVKGEGSYRAGANGNAASLESFQHPKMKVFSGMMTAIVSSTEQPGKITLEATGKGLKKGALIIESCQEAKEGHHHHHH” the “soluble on expression in E. coli” value was “not soluble”.
With “MSAEQDKEPIALKRVRGGDSGLDGLGGPNIQLGSPDKKKRKANTQGSSFPPLSEYAPPPNPNSDHLVAANPFDDSYNTISYKPLPSSNPYLGPGYPGFGGYSTFRMPPHVPPRMSSPYCGPYSLRNQPHPFPQNPLGMGFNRPHAFNFGPHDNSNFGNPPYNNVLTQDINMPGQHFRQGSAENFSQIPPQNVGQVSNPDLASNFAPGNNSNFTSPLETNHSFIPPPNAFGQAKAPLPKQDFTQGATKTPNQNSSTHPPHLNMEDPVNQSNVELKNVNRNNVVQENSRSGSAEATNNHANGTQNKPRQPRGAADLCTPDKSRKFSLLPSRHGHSSSDPVYPCGICTNEVNDDQDAILCEASCQKWFHRICTGMTETAYGLLTAEASAVWGCDTCMADKDVQLMRTREAFGPPAVGGDA” the “soluble on expression in E. coli” value was “soluble”.
